{
  "source": "patent US11110154",
  "experiment_in_all_cases": "cell_activity",
  "key": {"[1]": {"tested_on": "ZFP 33074-KOX (ZFP-TF repressor) (synthetic construct)", "conditions": "lentiviral, CAG17/48 neurons; apoptosis ~50% to 20%; AAV in Q175 mice reduced mHtt aggregates (P<0.001); indirect evidence of binding; scale: % increase of intracellular ATP in HD neurons"}, "[2]": {"tested_on": "ZFP 30640 (ZFP-TF repressor) (synthetic construct)", "conditions": "AAV, Q175 mouse striatum (~179 CAG), injected at 2 months; indirect evidence of binding"}, "[3]": {"tested_on": "ZFP 30645 (ZFP-TF repressor) (synthetic construct)", "conditions": "AAV, Q175 mouse striatum (~179 CAG), injected at 2 months; indirect evidence of binding"}},
  "data": [
    {"sequence": "AGCAGCAGCAGCAGCAGCAGCAGCAGCA (double strand) [Htt CAG repeat, 33074 target]", "values": [
      {"measurement": "activity", "setting": "[1]", "value": 60}
    ]},
    {"sequence": "CAGCAGCAGCAGCAGCAGCAGCAGCAGC (double strand) [Htt CAG repeat, 30640 target]", "values": [
      {"measurement": "activity (% reduction of nuclear Htt aggregates)", "setting": "[2]", "value": "> 90"}
    ]},
    {"sequence": "CAGCAGCAGCAGCAGCAGCAGCAGCAGC (double strand) [Htt CAG repeat, 30645 target]", "values": [
      {"measurement": "activity (% reduction of nuclear Htt aggregates)", "setting": "[3]", "value": "> 90"}
    ]}
  ]
}
